14 molecules from article PMC7305236 can be followed below.

No end group written: not given here.

Experiment [1] concerns the target ACKR3 C-terminally tagged with SmBiT (human) (UniProt P25106).
Experiment [2] concerns the target delta opioid receptor (DOR) C-terminally tagged with SmBiT (UniProt P41143).
The target in experiment [3] is kappa opioid receptor (KOR) C-terminally tagged with SmBiT (UniProt P41145).
Experiment [4] concerns the target mu opioid receptor (MOR) C-terminally tagged with SmBiT (UniProt P35372).
In experiment [5] the target is atypical chemokine receptor ACKR3 (formerly CXCR7) (human) (UniProt P25106).
atypical chemokine receptor ACKR3 (formerly CXCR7) (human), sequence (P25106 whole entry): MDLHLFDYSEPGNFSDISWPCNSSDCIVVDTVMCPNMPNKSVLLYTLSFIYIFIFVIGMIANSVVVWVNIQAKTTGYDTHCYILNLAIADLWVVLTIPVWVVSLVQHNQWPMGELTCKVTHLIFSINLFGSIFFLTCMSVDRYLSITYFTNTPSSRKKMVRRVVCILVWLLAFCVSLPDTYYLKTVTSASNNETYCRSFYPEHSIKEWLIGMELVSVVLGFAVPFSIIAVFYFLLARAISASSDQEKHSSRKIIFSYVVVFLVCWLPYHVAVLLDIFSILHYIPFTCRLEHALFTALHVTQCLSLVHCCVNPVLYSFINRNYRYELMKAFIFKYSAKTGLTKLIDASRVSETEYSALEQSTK
Experiment [6] addresses ACKR3 C-terminally tagged with SmBiT (human) (UniProt P25106). The source holds these as a separate data set.
Experiment [7] has the same target. The source holds these as a separate data set.

ACKR3 C-terminally tagged with SmBiT (human), sequence (P25106 whole entry): as above

B1: BAM22 (peptide)
peptide: YGGFMRRVGRPEWWMDYQKRYG
As for B1, the β-arrestin-1 recruitment (NanoBiT, U87 cells): EC50 turned out to be 23.5 nM in experiment [1], 367 nM in experiment [2], 44.2 nM in experiment [3] and 10 nM in experiment [4].

B2: second-generation peptide … (peptide)
peptide: FGGFMRRVR-NH2
B2 showed a Supplementary Table 5: EC50 of β-arrestin-1 recruitment to ACKR3 in experiment [5] of 3.53 nM.

B3: second-generation peptide … (peptide)
peptide: FGGFMRRFR-NH2
The molecule B3 gave a Supplementary Table 5: EC50 of β-arrestin-1 recruitment to ACKR3 in experiment [5] of 16.3 nM.

B4: Met enkephalin (peptide)
peptide: YGGFM
B4: the β-arrestin-1 recruitment (NanoBiT, U87 cells): EC50 in experiment [2] was found to be 16.3 nM; in experiment [4], 419 nM.

B5: second-generation peptide FGGWMRRF (peptide)
peptide: FGGWMRRF-NH2
In experiment [5], B5 yielded a Supplementary Table 5: EC50 of β-arrestin-1 recruitment to ACKR3 of 19.1 nM.

B6: adrenorphin Y1F variant (peptide)
peptide: FGGFMRRV-NH2
In turn, B6 displayed a potency in β-arrestin-1 recruitment against wild-type adrenorphin (U87 cells) in experiment [6] of 10 fold.

B7: second-generation peptide FGGFMRRF (peptide)
peptide: FGGFMRRF-NH2
Consider B7, for which the Supplementary Table 5: EC50 of β-arrestin-1 recruitment to ACKR3 in experiment [5] was determined as 11 nM.

B8: second-generation peptide … (peptide)
peptide: FGGFMRRKR-NH2
B8 returned a Supplementary Table 5: EC50 of β-arrestin-1 recruitment to ACKR3 in experiment [5] of 1.12 nM.

B9: second-generation peptide … (peptide)
peptide: FGGWMRRKR-NH2
For the molecule B9, in experiment [5], the Supplementary Table 5: EC50 of β-arrestin-1 recruitment to ACKR3 turned out to be 7.34 nM.

B10: second-generation peptide … (peptide)
peptide: FGGWMRRVR-NH2
On to B10, for which the Supplementary Table 5: EC50 of β-arrestin-1 recruitment to ACKR3 in experiment [5] was 6.16 nM.

B11: second-generation peptide … (peptide)
peptide: FGGWMRRFR-NH2
In experiment [5], B11 registered a Supplementary Table 5: EC50 of β-arrestin-1 recruitment to ACKR3 of 19.1 nM.

B12: CXCL11 (ligand)
chain: FPMFKRGRCLCIGPGVKAVKVADIEKASIMYPSNNCDKIEVIITLKENKGQRCLNPKSKQARLIIKKVERKNF
The molecule B12 came in with a β-arrestin recruitment to ACKR3 (Fig. 4b): EC50 in experiment [7] of 2.2 nM.

B13: second-generation peptide FGGWMRRV (peptide)
peptide: FGGWMRRV-NH2
On to B13, for which the Supplementary Table 5: EC50 of β-arrestin-1 recruitment to ACKR3 in experiment [5] was 10.5 nM.

B14: second-generation peptide FGGWMRRK (peptide)
peptide: FGGWMRRK-NH2
Turning to B14, in experiment [5], the Supplementary Table 5: EC50 of β-arrestin-1 recruitment to ACKR3 is 4.39 nM.
